Assay results: FireProtDB (doi:10.1016/j.bpj.2010.04.076)

B1: Adenylate kinase, P16304 (parent)
chain: MNLVLMGLPGAGKGTQGERIVEDYGIPHISTGDMFRAAMKEETPLGLEAKSYIDKGELVPDEVTIGIVKERLGKDDCERGFLLDGFPRTVAQAEALEEILEEYGKPIDYVINIEVDKDVLMERLTGRRICSVCGTTYHLVFNPPKTPGICDKDGGELYQRADDNEETVSKRLEVNMKQTQPLLDFYSEKGYLANVNGQQDIQDVYADVKDLLGGLKK

Variants of: B1
Details: Bacillus subtilis (strain 168), pH 7, CD, transition: 2, reversible: yes, structure 2EU8, whole UniProt chain shown; for Tm / change of melting temperature, mutant - wild type (higher = more stable): Thermal, KH2PO4 10mM; for ddG of mutation (higher = less stable) / unfolding free energy: 20 °C, GdnHCl, Phosphate buffer 10mM

## Q199R G213Q
  Tm: 39.3 °C
  change of melting temperature, mutant - wild type (higher = more stable): -9.1 °C

## Q199R G213A
  Tm: 37.9 °C
  change of melting temperature, mutant - wild type (higher = more stable): -10.5 °C

## Q199R G213E
  ddG of mutation (higher = less stable): -1.68 kcal/mol
  unfolding free energy: 5.02 kcal/mol
  Tm: 51.4 °C
  change of melting temperature, mutant - wild type (higher = more stable): 3 °C

## Q199R Q16L
  ddG of mutation (higher = less stable): -3.35 kcal/mol
  unfolding free energy: 6.69 kcal/mol
  Tm: 63.3 °C
  change of melting temperature, mutant - wild type (higher = more stable): 14.9 °C

## Q199R G214A
  Tm: 49.1 °C
  change of melting temperature, mutant - wild type (higher = more stable): 0.7 °C

## Q199R G214R
  ddG of mutation (higher = less stable): -2.63 kcal/mol
  unfolding free energy: 5.97 kcal/mol
  Tm: 53.4 °C
  change of melting temperature, mutant - wild type (higher = more stable): 5 °C

## Q199R G214K
  Tm: 48.4 °C
  change of melting temperature, mutant - wild type (higher = more stable): 0 °C

## Q199R T179I
  ddG of mutation (higher = less stable): -2.4 kcal/mol
  unfolding free energy: 5.74 kcal/mol
  Tm: 53.3 °C
  change of melting temperature, mutant - wild type (higher = more stable): 4.9 °C

## Q199R
  ddG of mutation (higher = less stable): -0.48 kcal/mol
  unfolding free energy: 3.82 kcal/mol
  Tm: 49.5 °C
  change of melting temperature, mutant - wild type (higher = more stable): 1.1 °C

## Q199R A193V
  ddG of mutation (higher = less stable): -2.87 kcal/mol
  unfolding free energy: 6.21 kcal/mol
  Tm: 54.6 °C
  change of melting temperature, mutant - wild type (higher = more stable): 6.2 °C

## T179I
  Tm: 47.8 °C
  change of melting temperature, mutant - wild type (higher = more stable): -0.6 °C

## A193V
  Tm: 48.9 °C
  change of melting temperature, mutant - wild type (higher = more stable): 0.5 °C

## G214R
  Tm: 49.8 °C
  change of melting temperature, mutant - wild type (higher = more stable): 1.4 °C
